From the Human Domainome abundance scans (Beltran et al. 2025)
± gives the uncertainty stated by the source.

experiment: abundance fitness (aPCA) (normalised: wild type 0, dead -1); higher = more abundant; growth selection in yeast, the domain comes from the species named; conditions: Bacillus caldolyticus

Substance	abundance fitness
Cold shock protein CspB E21R, P41016	0.011 ± 0.036
Cold shock protein CspB G22P, P41016	0.032 ± 0.047
Cold shock protein CspB I18R, P41016	-0.908 ± 0.044
Cold shock protein CspB S24E, P41016	0.012 ± 0.053
Cold shock protein CspB V20G, P41016	0.004 ± 0.039

same assay, conditions: Homo sapiens

Substance	abundance fitness
Gamma-crystallin C A162C, P07315	-0.092 ± 0.14
Gamma-crystallin C L167W, P07315	-0.575 ± 0.23
Gamma-crystallin C R153W, P07315	-0.775 ± 0.22
Scaffold attachment factor B1 A41C, Q15424	-0.317 ± 0.08
Scaffold attachment factor B1 A41D, Q15424	-0.204 ± 0.064
Scaffold attachment factor B1 A41E, Q15424	-0.049 ± 0.062
Scaffold attachment factor B1 A41F, Q15424	-0.145 ± 0.053
Scaffold attachment factor B1 A41G, Q15424	-0.095 ± 0.063
Scaffold attachment factor B1 A41H, Q15424	-0.449 ± 0.11
Scaffold attachment factor B1 A41I, Q15424	-0.114 ± 0.073
Scaffold attachment factor B1 A41K, Q15424	-0.205 ± 0.068
Scaffold attachment factor B1 A41L, Q15424	-0.12 ± 0.055
Scaffold attachment factor B1 A41M, Q15424	-0.142 ± 0.061
Scaffold attachment factor B1 A41N, Q15424	-0.311 ± 0.1
Scaffold attachment factor B1 A41Q, Q15424	-0.257 ± 0.072
Scaffold attachment factor B1 A41R, Q15424	-0.12 ± 0.051
Scaffold attachment factor B1 A41S, Q15424	-0.128 ± 0.053
Scaffold attachment factor B1 A41T, Q15424	-0.164 ± 0.059
Scaffold attachment factor B1 A41V, Q15424	-0.105 ± 0.053
Scaffold attachment factor B1 A41W, Q15424	-0.122 ± 0.049
Scaffold attachment factor B1 A41Y, Q15424	-0.176 ± 0.069
Scaffold attachment factor B1 A64C, Q15424	-0.016 ± 0.077
Scaffold attachment factor B1 A64D, Q15424	-0.601 ± 0.11
Scaffold attachment factor B1 A64F, Q15424	-0.317 ± 0.089
Scaffold attachment factor B1 A64G, Q15424	-0.527 ± 0.053

Substance	abundance fitness
Scaffold attachment factor B1 A64H, Q15424	-0.132 ± 0.082
Scaffold attachment factor B1 A64I, Q15424	-0.109 ± 0.073
Scaffold attachment factor B1 A64K, Q15424	-0.228 ± 0.08
Scaffold attachment factor B1 A64L, Q15424	-0.146 ± 0.052
Scaffold attachment factor B1 A64M, Q15424	-0.416 ± 0.1
Scaffold attachment factor B1 A64N, Q15424	-0.551 ± 0.15
Scaffold attachment factor B1 A64P, Q15424	-0.603 ± 0.087
Scaffold attachment factor B1 A64Q, Q15424	-0.162 ± 0.086
Scaffold attachment factor B1 A64R, Q15424	-0.236 ± 0.048
Scaffold attachment factor B1 A64T, Q15424	-0.125 ± 0.078
Scaffold attachment factor B1 A64W, Q15424	-0.249 ± 0.062
Scaffold attachment factor B1 A64Y, Q15424	-0.519 ± 0.12
Scaffold attachment factor B1 D33A, Q15424	-0.303 ± 0.049
Scaffold attachment factor B1 D33C, Q15424	-0.354 ± 0.061
Scaffold attachment factor B1 D33E, Q15424	-0.209 ± 0.078
Scaffold attachment factor B1 D33F, Q15424	-0.715 ± 0.063
Scaffold attachment factor B1 D33G, Q15424	-0.281 ± 0.053
Scaffold attachment factor B1 D33H, Q15424	-0.262 ± 0.1
Scaffold attachment factor B1 D33I, Q15424	-0.88 ± 0.12
Scaffold attachment factor B1 D33K, Q15424	-0.451 ± 0.069
Scaffold attachment factor B1 D33L, Q15424	-0.437 ± 0.06
Scaffold attachment factor B1 D33M, Q15424	-0.235 ± 0.055
Scaffold attachment factor B1 D33N, Q15424	-0.291 ± 0.068
Scaffold attachment factor B1 D33P, Q15424	-0.726 ± 0.069
Scaffold attachment factor B1 D33Q, Q15424	-0.192 ± 0.069
